According to the supplement of paper PMC9170038:

Test system: MS2 coat protein
Assay: apparent KD of MS2 coat protein; designed switch direction (-1 OFF switch, 1 ON switch): 1; higher = weaker reporter binding
Method in brief: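 Apparent KD, taken as the median over clusters for each design, was obtained by curve-fitting normalised cluster fluorescence. Designed RNA switches had been transcribed on Illumina chips by stalled E. coli RNA polymerase and titrated with SNAP-549-labelled MS2 coat protein, doubling from 0.7 or 1.5 nM to 3 µM.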

[1] = Eterna round: R95, input ligand: FMN 200 uM
[2] = Eterna round: R95, input ligand: microRNA oligo, concentration not stated
[3] = Eterna round: R95, input ligand: none
[4] = input ligand: microRNA oligo, concentration not stated

Sequence | apparent KD of MS2 coat protein [1] | apparent KD of MS2 coat protein [2] | apparent KD of MS2 coat protein [3] | apparent KD of MS2 coat protein (input ligand: FMN 200 uM) | apparent KD of MS2 coat protein [4] | apparent KD of MS2 coat protein (input ligand: none)
AGCUAUCGAAAACGAUAGCAAGAGCAUGUACAUGAGGAUCACCCAUGUCAUGUACAAGCUUUUUGCUCGUCUUAAAA [Zipper 23 - 2] (puzzle: Sensor for hsa-mir-208a) | 330 nM | 17 nM | 490 nM | – | – | –
UAGUGCAUUAGAGGAUAUUCUUACGGAAACGUUAAGACAUGAGGAUCACCCAUGUUGUCACAUGGGAAGAAGGCUGAUGUGCUA [Omei SS(NG)2 Bv4] (Eterna round: R96, puzzle: Same State NG 2) | – | – | – | 63.6 nM | 390 nM | 835 nM
ACAUGAGACGUAGGAUAUAUUGUACCUACAUGUGACAUGAGGAUCACCCAUGUGGUAAGUAUGACAUAGAAGGACGAGAUAUGU [Equivalance 94 - Jieux - Same State NG 2] (Eterna round: R96, puzzle: Same State NG 2) | – | – | – | 48.6 nM | 49.7 nM | 64.3 nM
GGAGCCGGCCUAGGAUAUUUCAUAAAAAGACAUGAGGAUCACCCAUGUAGGCCAGAAGGCCUUGGGAAGAAGGAGGUCGGCUCC [Loop Effect - G29] (Eterna round: R96, puzzle: Same State NG 2) | – | – | – | 20.8 nM | 22.7 nM | 32.9 nM
ACAUGAGAGAUAGGAUAUCGUGUACCUACAUGUGACAUGAGGAUCACCCAUGUGGUAAGUAUGAGCGAGAAGGAUCAGAUAUGU [Equivalence 50 - Jieux - Same State NG 2] (Eterna round: R96, puzzle: Same State NG 2) | – | – | – | 24.6 nM | 43.1 nM | 78.4 nM
UGAGCCGGCACUGAGGAUAUUCAUAUUUAAACAUGAGGAUCACCCAUGUAGGCCAGAAGGCCUUGGGAGAAGGCAGGUCGGCUCU [salish99_ss2_r3_078] (puzzle: Same State 2) | – | 258 nM | – | – | – | –
UAAAUAAUGAUAGGAUAUACAUGAGGAAUUCUCGUAGAAGGAUCAUGACAUGAGGAUCACCCAUGUAACGCUCGAAAGAGCGUA [Mat - Same State NG 1 - JL mod - D40] (Eterna round: R96, puzzle: Same State NG 1) | – | – | – | 556 nM | 205 nM | 585 nM
UGCUAUUGUAUAUUGGUGCAAGCUUAUUGACAUGAGGAUCACCCAUGUACUCGUCUUAUGUGCAGUCCGUAGACUGC [JL-shm-2.25 Brourd mod] (puzzle: Sensor for hsa-mir-208a) | 72 nM | 13.9 nM | 78.7 nM | – | – | –
CUGUGUUGCGGGCAGGAUAUGUACUUGAGUACAUGAGGAUCACCCAUGUGCGGGUGUUUCACCCGACAGAAGGGCCAAUCGCGAC [JL-ss2-3.23 ViennaUCT mod] (puzzle: Same State 2) | 68.8 nM | 311 nM | 1520 nM | – | – | –
CAGCGCUGUUGAGAGGAUAUGCGGUGAUGGACAUGAGGAUCACCCAUGUUAGCGAUAGCAUUACGGUAGAAGGCUCUACAGCUGC [Soteed Omei mod 3] (puzzle: Same State 2) | – | 14 nM | – | – | – | –
GAGUAGUUGAAAGGAUAUUGAUUGUUGUAGGAUCAAGAAGGUUCUAACAUGAGGAUCACCCAUGUAGGACUAUUCCUGUGUAUC [Parity 86 - Jieux - Same State NG 1] (Eterna round: R96, puzzle: Same State NG 1) | – | – | – | 8.27 nM | 8.09 nM | 11.9 nM
CUGAGCGAUCAAGGAUAUCACGUCGAAUAGACGUGAGAAGGUGAUCCAUACAUGAGGAUCACCCAUGUAUAACAUGAAGCUCAG [SSNG1/8-A1] (Eterna round: R96, puzzle: Same State NG 1) | – | – | – | 794 nM | 21.6 nM | 404 nM
GCUCGCACGAUGACCCACAUGAGGAUCACCCAUGUGUGUGGGUAGGAUAUCUAGAUUAAGGAUGUAGAGAAGGGCCGAGCGAGC [SameState NG3 #23] (Eterna round: R96, puzzle: Same State NG 3) | – | – | – | 576 nM | 429 nM | 600 nM
CGGGUGGUUCUAGGAUAUCUAGGAUAUGGACGAGGAUUACCCGAGCAGCAUUAGCGCACCAGAGGAGAGAAGGAGAGUGAUGCG [pwkr ssNG2 2F5 2FMN.16] (Eterna round: R96, puzzle: Same State NG 2) | – | – | – | 251 nM | 3.25 nM | 53.3 nM
GCGAAAGCGGUAGGAUAUCUAGGAUAUGGGAAGGACUAAGUCUGGAGGUCACCUCACCCAGAAGGAGAGAAGGACACCGAAAGG [pwkr ssNG2 2FMN + F9.1] (Eterna round: R96, puzzle: Same State NG 2) | – | – | – | 534 nM | 204 nM | 42.6 nM
GCCGGACAUGAGGAUCACCCAUGUCCUCACUAUACAGGAUAUCGGGUAGGAUCCCUACGGCGAGAAGGGUAUAAAA [Inarquat] (puzzle: Same State 1) | 34.2 nM | 32.2 nM | 22.1 nM | – | – | –
AUAGUUGCCGAAGGAUAUGAUGAGGAUCACCCAUCAGAAGGUCGGCUAUUGGGUGGAUAUGAGGAUCACCCGUGUUCUUUGGUC (Eterna round: R96, puzzle: Same State NG 1) | – | – | – | 22.4 nM | 16.7 nM | 22.9 nM
AGCAAUCUAUCUCAGGAUAUCAUGUCAAAGACAUGAGGAUCACCCAUGUACCAGGAAACUGGUUAUGAGAAGGGAGAUAGAUUGA [Mat - Same State 2 - Mod - D29] (puzzle: Same State 2) | 154 nM | 52.2 nM | 177 nM | – | – | –
AGUCUACGGAAACGUAGACAGUGGAGCGUACAUGAGGAUCACCCAUGUCAUGUGAGAGCUACUUGUUCGUCUUGAGC [SENSOR #5] (puzzle: Sensor for hsa-mir-208a) | 26.4 nM | 18.5 nM | 26.8 nM | – | – | –
GAAAUAAUGUAAGGAUAUACAUGAGGAUUUCUCGUAGAAGGUACAAGACAUGAGGAUCACCCAUGUGUCGCUCCGUAGAGCGUA [Mat - Same State NG 1 - JL mod - D14] (Eterna round: R96, puzzle: Same State NG 1) | – | – | – | – | 125 nM | –
UAGGGACAUGAGGAUCACCCAUGUGCCUCAUAUGGAGAAACUCAGGAUAUGCUGAGGAUCACCCGGCAGAAGGGAGAUUUGACC (Eterna round: R96, puzzle: Same State NG 3) | – | – | – | 24.2 nM | 37.1 nM | 53.2 nM
CGUCGCUGUCGAGAGGAUAUGCGGUGAUGGACAUGAGGAUCACCCAUGUUAGCGAUAGCAUCACGGUAGAAGGCUCUUACGACUG [Soteed Omei mod 24] (puzzle: Same State 2) | 12.6 nM | 20 nM | 26.8 nM | – | – | –
AUAAAACAUGAGGAUCACCCAUGUCAACAAAGUCGAGGAUAUGGGCAAAUAAAAGAAUAACCAGAAGGCGAAUAAU [salish99_ss1_r3_053] (puzzle: Same State 1) | 46 nM | 283 nM | 481 nM | – | – | –
